The record followed here is patent US20230059489A1.

The assay concerns the target human FLT3 (hFLT3) (human) (UniProt P36888). As to the kind of experiment: SPR, Table 6, scFv format; set-up and antigen species not described. Background: Surface plasmon resonance follows binding to a sensor surface in real time, without labels.

Sequence of human FLT3 (hFLT3) (human) (P36888 27-543 limits assumed): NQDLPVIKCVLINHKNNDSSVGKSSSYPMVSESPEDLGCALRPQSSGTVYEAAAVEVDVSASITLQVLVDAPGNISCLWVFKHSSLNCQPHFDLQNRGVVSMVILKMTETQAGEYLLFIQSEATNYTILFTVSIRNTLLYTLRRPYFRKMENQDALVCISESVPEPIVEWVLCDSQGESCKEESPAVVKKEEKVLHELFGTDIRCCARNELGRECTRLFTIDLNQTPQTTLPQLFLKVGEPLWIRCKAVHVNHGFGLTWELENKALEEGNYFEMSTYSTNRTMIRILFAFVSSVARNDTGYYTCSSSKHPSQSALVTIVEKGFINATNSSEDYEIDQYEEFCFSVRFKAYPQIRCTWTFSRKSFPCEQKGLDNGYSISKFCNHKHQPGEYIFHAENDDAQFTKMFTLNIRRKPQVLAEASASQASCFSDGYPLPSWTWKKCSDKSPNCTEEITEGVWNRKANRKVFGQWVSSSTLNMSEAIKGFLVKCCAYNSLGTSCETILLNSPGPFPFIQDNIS

B1: P1B4 (scFv format) (scFv, part only; not given: linker, domain order, tags, V domains shown, not shown: another chain or arm of the molecule; small tags and cut ends)
VH: QVQLVQSGAEVKKPGSSVKVSCKASGGVFSRYALSWVRQAPGQGLEWMGGIIPMLGFANYAQKFQGRVTITADESTSTAYMELSSLRSEDTAVYYCATLDFGALDYWGQGTLVTVSS
VL: EIVLTQSPGTLSLSPGERATLSCRASQSVPNEQLAWYQQKPGQAPRLLIYDASSRATGIPDRFSGSGSGTDFTLTISRLEPEDFAVYYCQQYGSPPLTFGQGTKVEIK
With B1, the Kd stood at 27.3 nM, the koff was 0.00327 s⁻¹, the kon stood at 120000 M⁻¹ s⁻¹ and the t1/2 was 3.5 min.

B2: P3E10 (scFv format) (scFv, part only; not given: linker, domain order, tags, V domains shown, not shown: another chain or arm of the molecule; small tags and cut ends)
VH: QVQLVQSGAEVKKPGSSVKVSCKASGGTFSSYAIQWVRQAPGQGLEWMGGIVGSWGLANYAQKFQGRVTITTDKSTSTAYMELSSLRSEDTAVYYCATSAFGELASWGQGTLVTVSS
VL: EIVLTQSPGTLSLSPGERATLSCRASQSVPSSQLAWYQQKPGQAPRLLIYDASSRATGIPDRFSGSGSGTDFTLTISRLEPEDFAVYYCQQYGSSPLTFGQGTKVEIK
In turn, B2 gave an equilibrium dissociation constant (Kd) of 65.1 nM, a koff of 0.0112 s⁻¹, a kon of 172000 M⁻¹ s⁻¹ and a t1/2 of 1 min.

B3: P1A5 (scFv format) (scFv, part only; not given: linker, domain order, tags, V domains shown, not shown: another chain or arm of the molecule; small tags and cut ends)
VH: QVQLVQSGAEVKKPGSSVKVSCKASGGVFSRYALSWVRQAPGQGLEWMGGIIPMLGFANYAQKFQGRVTITADESTSTAYMELSSLRSEDTAVYYCATLDFGALDYWGQGTLVTVSS
VL: EIVLTQSPGTLSLSPGERATLSCRASQAVDSSDLAWYQQKPGQAPRLLIYDAYTRPSGIPDRFSGSGSGTDFTLTISRLEPEDFAVYYCQQYGSSPLTFGGGTKLEIK
B3 returned a Kd of 1.1 nM, a koff of 0.000292 s⁻¹, a kon of 259000 M⁻¹ s⁻¹ and a t1/2 of 40 min.

B4: P7H3 (scFv format) (scFv, part only; not given: linker, domain order, tags, V domains shown, not shown: another chain or arm of the molecule; small tags and cut ends)
VH: EVQLLESGGGLVQPGGSLRLSCAASGFTFSSYAMHWVRQAPGKGLEWVSAISGSGGSTYYADSVKGRFTISRDNSKNTLYLQMNSLRAEDTAVYYCARGTRWWWGDAFDHWGQGTLVTVSS
VL: QSVLTQPPSVSVAPGKTARITCGGNNIGSKSVHWYQQKPGQAPVLVIYYDSDRPSGIPERFSGSNSGNTATLTISRVEAGDEADYYCQVWDSSTAWVFGGGTKLTVL
B4: the Kd came to 9.1 nM, the koff was 0.00187 s⁻¹, the kon amounted to 205000 M⁻¹ s⁻¹ and the t1/2 came out at 6.2 min.

B5: P5A3 (scFv format) (scFv, part only; not given: linker, domain order, tags, V domains shown, not shown: another chain or arm of the molecule; small tags and cut ends)
VH: QVQLVQSGAEVKKPGSSVKVSCKASGGTFSSYYIGWVRQAPGQGLEWMGGIIPWFGTANYAQKFQGRVTITADKSTNTAYMELSSLRSEDTAVYYCAADHHDSPSGYTSGGFDVWGQGTLVTVSS
VL: QSALTQPASVSGSPGQSITISCTGTSSDVGGYNYVSWYQQHPGKAPKLMIYEVSKRPSGVPDRFSGSKSGNTASLTVSGLQAEDEADYYCSSYAGSNTVVFGGGTKLTVL
On to B5, for which the Kd was determined as 216 nM, the koff came to 0.0175 s⁻¹, the kon was 81000 M⁻¹ s⁻¹ and the t1/2 came to 0.7 min.

B6: P5F7 (scFv format) (scFv, from a related filing, part only)
scFv: EVQLLESGGGLVQPGGSLRLSCAASGFTFSSYAMNWVRQAPGKGLEWVSSISGGGRSTYYADSVKGRFTISRDNSKNTLYLQMNSLRAEDTAVYYCARDLSPSDVGWGYGFDIWGQGTLVTVSSGGGGSGGGGSGGGGSEIVLTQSPATLSLSPGERATLSCRASQSVSSNLAWYQQKPGQAPRLLIYDTFTRATGIPARFSGSGSGTDFTLTISRLEPEDFAVYYCQQYGSSPPTFGQGTRLEIK
Molecule B6 showed a Kd of 1 nM, a koff of 0.000197 s⁻¹, a kon of 189000 M⁻¹ s⁻¹ and a t1/2 of 59 min.

B7: P4H11 (scFv format) (scFv, part only; not given: linker, domain order, tags, V domains shown, not shown: another chain or arm of the molecule; small tags and cut ends)
VH: EVQLLESGGGLVQPGGSLRLSCAASGFTFSSYAMNWVRQAPGKGLEWVSSISGGGRSTYYADSVKGRFTISRDNSKNTLYLQMNSLRAEDTAVYYCARDLSPSDVGWGYGFDIWGQGTLVTVSS
VL: EIVLTQSPGTLSLSPGERATLSCRASQSVSNTYLAWYQQKPGQAPRLLIYDTSSRATGIPDRFSGSGSGTDFTLTISRLEPEDFAVYYCQQYGSSLTFGQGTKVEIK
B7 had a Kd of 58.3 nM, a koff of 0.00933 s⁻¹, a kon of 160000 M⁻¹ s⁻¹ and a t1/2 of 1 min.

B8: P4C7 (scFv format) (scFv, part only; not given: linker, domain order, tags, V domains shown, not shown: another chain or arm of the molecule; small tags and cut ends)
VH: QVQLVQSGAEVKKPGSSVKVSCKASGGTFSSYTISWVRQAPGQGLEWMGGIIPAFGIANYAQKFQGRVTITADKSTSTAYMELSSLRSEDTAVYYCAKGGSYSLDYFDIWGQGTLVTVSS
VL: EIVLTQSPGTLSLSPGERATLSCRASQYVSASLLAWYQQKPGQAPRLLIYGASTRATGIPDRFSGSGSGTDFTLTISRLEPEDFAVYYCQQYARSSTFGQGTKVEIK
B8 gave a Kd of 13.6 nM, a koff of 0.00164 s⁻¹, a kon of 121000 M⁻¹ s⁻¹ and a t1/2 of 7 min.

B9: P9F1 (scFv format) (scFv, part only; not given: linker, domain order, tags, V domains shown, not shown: another chain or arm of the molecule; small tags and cut ends)
VH: EVQLLESGGGLVQPGGSLRLSCAASGFIFSSFAMSWVRQAPGKGLEWVSDISGSGASTYYADSVKGRFTISRDNSKNTLYLQMNSLRAEDTAVYYCASASGGSGSYWPYMDPWGQGTLVTVSS
VL: QSVLTQPPSASGTPGQRVTISCSGSGSNIGSNYVYWYQQLPGTAPKLLIYRNNQRPSGVPDRFSGSKSGTSASLAISGLRSEDEADYYCAAWDGSLSRPVFGTGTKLTVL
B9 gave a Kd of 126 nM, a koff of 0.0286 s⁻¹, a kon of 226000 M⁻¹ s⁻¹ and a t1/2 of 0.4 min.

As a reminder, the Kd is the concentration at which binding is half-saturated. Read a low Kd as higher affinity. Broadly, the koff is the rate constant with which the complex falls apart. A higher koff goes with a short-lived complex. Usually kon stands for the rate constant with which the complex forms. Higher therefore signals fast association.
